How the values were obtained:
[1] = target: LILRB1 and LILRB2 on human primary myeloid cells (monocytes, M0 and M2c macrophages, mDCs, neutrophils); assay: flow cytometry, monocytes, AF647-labelled antibody, mean of two subjects
[2] = target: LILRB1 and LILRB2 on human primary myeloid cells (monocytes, M0 and M2c macrophages, mDCs, neutrophils); assay: flow cytometry, M0 macrophages, AF647-labelled antibody, mean of two subjects
[3] = target: LILRB1 and LILRB2 on human primary myeloid cells (monocytes, M0 and M2c macrophages, mDCs, neutrophils); assay: flow cytometry, M2c macrophages, AF647-labelled antibody, mean of two subjects

B1: Comp 1 (anti-LILRB1 antibody) (antibody, human IgG1, kappa, V domains shown)
VH: QVQLKESGPGLVAPSQSLSITCTVSGFSLTNYGVSWVRQPPGKGLEWLGIIWGDGSTNYHSALISRLSISKDNSKSQVFLKLNSLQADDTATYYCAKPNWDTYAMDFWGQGTSVTVSS
VL: DIQMTQTTSSLSASLGDRVTISCRASQDISNFLNWYQQKPDGTVKLLIYCTSKLHSGVPSRFSGSGSETDYSLTISNLEQEDIATYFCQQGNTLPPTFGGGTKLEIIR
**Q.** How did the EC50 [1] turn out when B1 was run?
**A.** 0.823 µg/mL

**Q.** And the EC50 [2]?
**A.** 0.0937 µg/mL

**Q.** And the EC50 [3]?
**A.** 0.0862 µg/mL

Reference: patent US20250002577A1
